Assay results reported in the RNAGym collection of RNA variant scans (doi:10.1073/pnas.2313332121).
Fewer inactive variants are shown than the library holds.

B1: TPR 5TU (parent)
chain: GGAUCUUCUCGAUCUAACAAAAAAGACAAAUCUGCCACAAAGCUUGAGAGCAUCUUCGGAUGCAGAGGCGGCAGCCUUCGGUGGCGCGAUAGCGCCAACGUUCUCAACUAUGACACGCAAAACGCGUGCUCCGUUGAAUGGAGUUUAUCAUG

Variants of: B1
Experiment: polymerase ribozyme fitness, log enrichment relative to wild type (log ratio); higher = more active; in vitro selection for triplet polymerase activity
In short: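 In triplicate, a single round of in vitro selection was run on each mutant library, PCR-built and transcribed, covering one subunit of a heterodimeric triplet polymerase ribozyme. Frozen incubation at −7 °C followed annealing with a biotinylated primer, partner subunit and triplets, and extended constructs were then gel-excised, streptavidin-captured and taken through RT-PCR. Fitness is the logarithm of genotype enrichment over wild-type enrichment, from inverse-variance-weighted replicate averages of Illumina-sequenced inputs and outputs. […] only genotypes with ≥10 input reads and ≥1 read per output were kept.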

GGAUCUUCUCGAUCUAACAAAAAAGACAAAUCUGCCACAAAGCUUGACAGCAUCUUCGGAUGCAGAGGCGGCAGCCUUCGGUGGCGCGAUAGCGCUAACGUUCUCAACUGUGACACGCAAAACGCGUGCUCCGUUGAAUGGAGUUUAUCAUG [G48C C96U A110G] and GGAUCUUCUCGAUCUAACAAAAAAGACAAAUCUGCCACAAAGCUUGACAGCAUCUUCGGAUGCAGAGGCGGCAGCCUUCGGUGGAGCGAUAGCGCCAACGUUCUCAACUAUGACACGCAAAACGCGUGCUCCGUUGAAUGGUGUUUAUCAUG [G48C C85A A142U] cannot be ordered by “polymerase ribozyme fitness (log ratio)” value: ≤ -4.2 for the first, ≤ -4.2 for the second.

Going from GGAUCUUCUCGAUCUAACAAAAAAGACAAAUCUGCCACAAAGCUUGACAGCAUCUUCGGAUGCAGAGGCGGCAGCCUUCGGUGGCGCGAUAGCGCCAGCGCUCUCAACUAUGACACGCAAAACGCGUGCUCCGUUGAAUGGAGAUUUUCAUG [G48C A98G U101C U144A A147U] to GGAUCUUCUCGAUCUAACAAAAAAGACAAAUCUGCCACAAAGCUUGACAGCAUCUUCGGAUGCAGAGGCGGCAGCCUUCGGUGGCGCGAUAGCGCCAACGUUCUCAACUAUGACACGCAAAACGGGUGCUCCGUUGAAUGGAGUUUAUCAUG [G48C C125G], the “polymerase ribozyme fitness (log ratio)” value falls from -0.0628 to -0.571.

Going from GGAUCUUCUCGAUCUAACAAAAAAGACAAAUCUGCCACAAAGCUUGACAGCAUCUUCGGAUGCAGAGGCGGCAGCCUUCGGUGGCGCGAUAGCGCCAACGUUCUCAACUAUGACACGCAAAACGCGUGCUCCGUUGAAUGGAGUUUAUCAUG [G48C] to GGAUCUUCUCGAUCUAACAAAAAAGACAAAUCUGCCACAAAGCUUGACAGCAUCUUCGGAUGCAGAGGCGGCAGCCUUCGGUGGCGCGAUAGCGCCAACGUUCUCAACUAUGACGCGCAAAACGCGUGCUCCAUUGAAUGGAGUUUAUCAUG [G48C A115G G133A], the “polymerase ribozyme fitness (log ratio)” value falls from 0.0216 to -3.85.

Compared with GGAUCUUCUCGAUCUAACAAAAAAGACAAAUCUGCCACAAAGCUUGACGGCAUCGUCGGAUGCAGUGGCGGCAGCCUUCGGUGGUGCGAUAGCGCCCACGUUCUCAACUAUGACACGCAAAACGCCUGCUCCGUUGAAUGGAGUUUAUCAUG [G48C A49G U55G A66U C85U A97C G126C], GGAUCUUCUCGAUCUAACAAAAAAGACAAAUCUGCCACAAAGCUUGACAGCAUCUUCGGAUGCAGAGGCGGCAGCCUUCGGUGGUGCGAUAGCUCUAACGUUCUCAACUAUGACACGCAAAACGCGUGCUCCGUUGAAUGGAGCUUAUCAUG [G48C C85U G94U C96U U144C] is higher in “polymerase ribozyme fitness (log ratio)” value: ≤ -4.2 for the first, -3.25 for the second.

Compared with GGAUCUUCUCGAUCUAACAAAAAAGACAAAUCUGCCACAAAGCUUGACAGCAUCUUCGGAUGCAGAGGCGGCAGCCUUCGGUGGCGCGAUAGCGCCAACGUUCUCAACUAUGCCACGCAAAACGCGUGCUCCGUUGAAUGGAGUUUACCAUG [G48C A113C U148C], GGAUCUUCUCGAUCUAACAAAAAAGACAAAUCUGCCACAAAGCUUGACAGCAUUUUCCGAUGCAGAGGCGGCAGCCUUCGGUGGCGUGAUAGCGCCAACGUUCUCAACUAUGACACGCAAAAUGCGUGCUCCGUUGAAUGGAGUUUAUCAUG [G48C C54U G58C C87U C123U] is higher in “polymerase ribozyme fitness (log ratio)” value: ≤ -4.2 for the first, -1.05 for the second.

GGAUCUUCUCGAUCUAACAAAAAAGACAAAUCUGCCACAAAGCUUGACAGCAUCUUCGGAUGCAGAGGCGGCAGCAUUCGGUGGCGCGAGAGCGCCAACGUUCUCAACUAUGACACGCAAAACGCGUGCGCCGUUGAAUGGAGUUUAUCAUG [G48C C76A U90G U130G] and GGAUCUUCUCGAUCUAACAAAAAAGACAAAUCUGCCACAAAGCUUGACAGCAUCUUAGGAUGCAGAGGCGGCAGGCUUCGGUUGCGCGAUAGCGCCAACGUUCUCGGCUAUGUCACGCAAAACGCGUGCUCCGUUGAAUGGAGUUUAUCAUG [G48C C57A C75G G83U A106G A107G A113U] cannot be ordered by “polymerase ribozyme fitness (log ratio)” value: ≤ -4.2 for the first, ≤ -4.2 for the second.

GGAUCUUCUCGAUCUAACAAAAAAGACAAAUCUGCCACAAAGCUUGACAGCAUCUUCGGAUGCAGAGGCGGCAGCCUUCGGUGGCGCGAUAGCGCCAACGUUCUCAACUCUGACACGCAAAACGCGUGCUCCGUUGAAUGUAGUUUAGCAUG [G48C A110C G141U U148G] and GGAUCUUCUCGAUCUAACAAAAAAGACAAAUCUGCCACAAAGCUUGACAGCAUAUUCGGAUGCAGAGGCGGCUGCCUUCGGUGGCGCGAUAGCGCCAAAGUUCUCAACUAUGACACGCAAAACGCGUGCUCCGUUGAAUGGAGUUUAUCCUG [G48C C54A A73U C99A A150C] cannot be ordered by “polymerase ribozyme fitness (log ratio)” value: ≤ -4.2 for the first, ≤ -4.2 for the second.

Going from GGAUCUUCUCGAUCUAACAAAAAAGACAAAUCUGCCACAAAGCUUGACAGCAUCUUCGGAUGCAGAGGAGGCAGCCUUCGGUGGCGCGAUAGCGCCAACGUUCUCAACUAUGACACGCAAAACGCGUGCUCCGUUGAAUGGAGUUUAUUAUG [G48C C69A C149U] to GGAUCUUCUCGAUCUAACAAAAAAGACAAAUCUGCCACAAAGCUUGACAGCAUCUUCGGAUGCAGAGGCGGCUGCCUUCGGUGGCGCGAUAGCGCCAACGUUCUCAACUAUGACACGCAAAACGCGUGCUCCGUGGAAUGGAGUUUAUCAUG [G48C A73U U135G], the “polymerase ribozyme fitness (log ratio)” value falls from -2.77 to ≤ -4.2.

GGAUCUUCUCGAUCUAACAAAAAAGACAAAUCUGCCACAAAGCUUGACAGCAUCUUCGGAUGCAGAGGCGGCAGCCUUCGGUGGCGCGAUGGCGCCAACGUUCUUAACUAUGACACGCAAAACGCGUGCUCCGUUGAAUGGAGUUUGUCAUG [G48C A91G C105U A147G] and GGAUCUUCUCGAUCUAACAAAAAAGACAAAUCUGCCACAAAGCUUGACAGUAUCUUCGGAUGCAGAGGCGGCAGCCUUCGGUGGUGCGAUAGCGCCAACGUUCUCAACUAUGACACGCAAAACGCGUGAUCCGUUGAAUGGAGUCUAUCAUG [G48C C51U C85U C129A U145C] cannot be ordered by “polymerase ribozyme fitness (log ratio)” value: ≤ -4.2 for the first, ≤ -4.2 for the second.

With GGAUCUUCUCGAUCUAACAAAAAAGACAAAUCUGCCACAAAGCUUGACCGCAUCUUCGGAUGCAGAGGCGGCAGCCUUCGGUGGCGCGAUAGCGCCAACGUUCUCAACUAUGACACGCAAAUCGCGUGCUCCGUUGAAUGGAGUUUAUCAUG [G48C A49C A122U] the “polymerase ribozyme fitness (log ratio)” value was -3.93.
